Source: patent publication US20210338724A1

What was measured:
TGFβ1 (R&D systems) = TGFβ1 (R&D systems) (UniProt P01137); experiment: cell-based or functional assay
[1] = molecular target: IL-18/TF/IL-15:IL-12/IL-15RαSu protein complex (18t15-12s) (human); experiment: sandwich ELISA; the concentration is that of the titrated 18t15-12s; anti-human tissue factor capture, BAM 247 detection at a fixed concentration
[2] = molecular target: IL-18/TF/IL-15:IL-12/IL-15RαSu protein complex (18t15-12s) (human); experiment: sandwich ELISA; the concentration is that of the titrated 18t15-12s; anti-human tissue factor capture, D045-6 detection at a fixed concentration
[3] = molecular target: IL-2Rα, IL-2Rβ and common γ chain on CTLL-2 cells; experiment: cell-based or functional assay
[4] = molecular target: IL-2Rβ and common γ chain on 32Dβ cells; experiment: cell-based or functional assay

Sequence of IL-18/TF/IL-15:IL-12/IL-15RαSu protein complex (18t15-12s) (human) (chain, as listed by the source, chain 1 of 2): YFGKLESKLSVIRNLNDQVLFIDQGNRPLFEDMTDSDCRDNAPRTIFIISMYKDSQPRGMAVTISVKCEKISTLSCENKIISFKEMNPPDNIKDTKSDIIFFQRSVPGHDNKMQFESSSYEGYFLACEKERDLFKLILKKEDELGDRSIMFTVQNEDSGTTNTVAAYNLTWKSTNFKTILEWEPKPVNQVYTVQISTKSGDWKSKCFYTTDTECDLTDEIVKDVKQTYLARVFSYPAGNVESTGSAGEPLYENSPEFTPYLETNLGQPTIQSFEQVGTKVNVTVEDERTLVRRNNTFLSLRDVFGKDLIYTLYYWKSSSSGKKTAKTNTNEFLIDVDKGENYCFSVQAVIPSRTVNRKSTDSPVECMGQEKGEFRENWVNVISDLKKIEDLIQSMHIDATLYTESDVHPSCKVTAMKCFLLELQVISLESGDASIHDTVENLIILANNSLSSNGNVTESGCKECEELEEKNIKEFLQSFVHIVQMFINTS
Sequence of IL-18/TF/IL-15:IL-12/IL-15RαSu protein complex (18t15-12s) (human) (chain, as listed by the source, chain 2 of 2): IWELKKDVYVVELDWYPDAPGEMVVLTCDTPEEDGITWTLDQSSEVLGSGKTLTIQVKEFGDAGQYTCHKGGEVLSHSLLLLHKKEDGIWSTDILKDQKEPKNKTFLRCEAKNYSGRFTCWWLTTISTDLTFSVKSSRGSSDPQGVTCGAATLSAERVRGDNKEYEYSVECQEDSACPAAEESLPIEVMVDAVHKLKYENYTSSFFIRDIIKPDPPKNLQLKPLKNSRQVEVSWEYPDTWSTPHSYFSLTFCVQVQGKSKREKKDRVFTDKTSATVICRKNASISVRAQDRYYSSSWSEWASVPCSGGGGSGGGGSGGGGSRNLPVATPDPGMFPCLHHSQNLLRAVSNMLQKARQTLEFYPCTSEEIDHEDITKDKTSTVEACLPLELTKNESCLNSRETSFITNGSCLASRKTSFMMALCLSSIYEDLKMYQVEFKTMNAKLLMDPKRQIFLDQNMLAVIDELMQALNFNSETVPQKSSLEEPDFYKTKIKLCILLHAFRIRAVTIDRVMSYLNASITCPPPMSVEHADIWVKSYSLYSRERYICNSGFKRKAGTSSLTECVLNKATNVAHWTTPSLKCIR
Sequence of UniProt P01137 (P01137 279-390 limits assumed): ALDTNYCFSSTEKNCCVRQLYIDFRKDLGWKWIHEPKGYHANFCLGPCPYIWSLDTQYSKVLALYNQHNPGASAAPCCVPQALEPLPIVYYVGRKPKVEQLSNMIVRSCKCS

EC50, CTLL-2 cell proliferation (WST1) [3]	EC50, 32Dβ cell proliferation (WST1) [4]	Substance	also measured
		TGFR-Fc (R&D Systems) (Fc fusion)	IC50, inhibition of TGFβ1 activity in HEK-Blue TGFβ reporter cells (QUANTI-Blue OD) (TGFβ1 (R&D systems)): 0.461 nM
		biotinylated anti-human IL-15 detection antibody (BAM 247)	EC50 (read off the curve) [1]: 0.01 mg/L
		biotinylated anti-human IL-18 detection antibody (D045-6)	EC50 (read off the curve) [2]: 0.03 mg/L
0.253 nM	0.0655 nM	recombinant IL2 (Proleukin) (from UniProt P60568 22-153) (ligand)	
0.548 nM	0.14 nM	recombinant IL-2 (from UniProt P60568 21-153) (ligand)	
	0.0106 nM	recombinant IL-15 (from UniProt P40933 49-162) (ligand)	
